Earlier results, collected in article PMC3166974.

What was measured:
PKR (Homo sapiens) = PKR (Homo sapiens) (UniProt P19525)
SecA (Escherichia coli) = SecA (Escherichia coli) (UniProt P10408)

| Kd (PKR (Homo sapiens)) [µM] | Substance | Kd (SecA (Escherichia coli)) [µM] |
| --- | --- | --- |
| 500 | PKR (from UniProt P19525) | – |
| – | SecA (from UniProt P10408) | 18.6 |
